Measurements reported in US20070254831A1 (published 2007).
Like-named read-outs stand apart in the source and are kept apart here. Each block holds one binder with its values, some of them ahead of it. Numbered stars: 1 amine (or outer) side, 2 acyl side, 3 side chain; on linkers, the order of the positions; unused ones are H or OH. Bridge positions count the residues as written; N and C are the ends. Square brackets hold non-standard residues; d marks the D form. Ends that are not written are not given here. X3 = 3(S)‑3‑amino‑2‑oxo‑1‑azepine acetic acid, O=C1[C@@H](N[*:1])CCCCN1CC(=O)[*:2]; 3‑amino‑2‑oxo‑1‑piperidine‑acetic acid = dipeptide mimetic in place of Gly-Gly; 6,5‑bicyclic dipeptide mimic = not defined here; Pen = CC(C)(S)[C@H](N)C(=O)O; Sar = CNCC(=O)O

Tests used:
soluble human FcRn [1] = biological target: T1, soluble human FcRn (human, UniProt P55899 24-297; P61769 21-119, biotinylated (Sulfo-NHS-LC-Biotin) in the ELISA; amine-coupled to CM5 chip in SPR); assay: ELISA, competitor human IgG
T1 construct: also called shFcRn; biotinylated shFcRn
Method: (§1) The wells were coated with 100 μl/well of 1 μg/ml biotinylated-shFcRn in Buffer A. The plate was sealed and incubated at 37° C. for 2 hours. Afterwards, the plate washed with 200 μl/well of Buffer B (Buffer B: 100 mM MES pH 6, 150 mM NaCl, 0.5% BSA IgG-free (Jackson ImmunoResearch, West Grove, Pa.), 0.05% Tween-20). […] To allow for mixing, the plate was rocked for 2 minutes, sealed and incubated at 37° C. for 2 hours. […] The plate was covered, incubated for 30 minutes at room temperature and washed 4 times with 200 μl/well of ice-cold buffer B. SureBlue TMB substrate solution (100 μl/well, KPL, Gaithersburg, Md.) was added and the plate was allowed to incubate at room temperature until color developed, which took 5 to 10 minutes. Once color developed, 100 μl/well of TMB stop solution (KPL, Gaithersburg, Md.) was added and the absorbance was measured at 450 nm. The data was plotted as absorbance vs. peptide concentration to derive the inhibitory concentration 50% (IC₅₀) values.

soluble human FcRn [2] = biological target: T1, soluble human FcRn; assay: SPR, pH 7.4
Method: (§2) The following steps were performed to cross-link soluble human or cynomolgus FcRn to the dextran surface of a CM5 sensor chip (Biacore AB, Uppsala, Sweden) by an amine coupling reaction involving 1-ethyl-(3-dimethylaminopropyl)-carbodiimide hydrochloride (EDC) (Biacore AB, Uppsala, Sweden) and N-hydroxysuccinimide (NHS) (Biacore AB, Uppsala, Sweden) as recommended by Biacore (BIAapplications Handbook, version AB, section 4.2, Biacore AB, Uppsala, Sweden). […] Residual sites on the FcRn flow cell were blocked with 1 M ethanolamine hydrochloride pH 8.5 (Biacore AB, Uppsala, Sweden). A control flow cell was blocked with ethanolamine for reference subtraction. For analysis of the monomeric peptides, FcRn was coated to a final density of 4000-5000 response units (RU). For analysis of the peptide dimers, FcRn was coated to a density of 2000-2500 RU. All SPR measurements were performed using a BIACORE 3000 Instrument (Biacore AB Uppsala, Sweden). For measurements done at either pH 6 or pH 7.4, experiments were performed in 50 mM phosphate, 100 mM sodium chloride, 0.01% surfactant P20 (Biacore AB, Uppsala, Sweden).
(§3) Ten, 2-fold dilutions of the peptide were injected over the FcRn-CM5 chip at a rate of 20 μl/min for 2 min. The peptide was dissociated from the chip for 2.5 minutes with buffer. Any remaining peptide was removed from the chip with a 30 second injection of HBS-P buffer (Biacore AB, Uppsala, Sweden) at a rate of 30 μl/min. Sensorgrams were generated and analyzed using BiaEval software version 3.1 (Biacore AB, Uppsala, Sweden). The equilibrium RU observed for each injection was plotted against concentration. The equilibrium KD values were derived by analysis of the plots using the steady state affinity model included in the BiaEval software.

soluble human FcRn [3] = biological target: T1, soluble human FcRn; assay: SPR, pH 6
Method: as §2, §3

soluble human FcRn [4] = biological target: T1, soluble human FcRn; assay: ELISA, competitor human IgG; remark: listed apart in the source
Method: as §1

soluble human FcRn [5] = biological target: T1, soluble human FcRn; assay: ELISA, competitor human IgG; remark: listed apart in the source
Method: as §1

soluble human FcRn [6] = biological target: T1, soluble human FcRn; assay: ELISA, competitor human IgG; remark: listed apart in the source
Method: as §1

soluble human FcRn [7] = biological target: T1, soluble human FcRn; assay: SPR, pH 6; remark: listed apart in the source
Method: as §2, §3

soluble human FcRn [8] = biological target: T1, soluble human FcRn; assay: ELISA, competitor human IgG; remark: listed apart in the source
Method: as §1

soluble human FcRn [9] = biological target: T1, soluble human FcRn; assay: SPR, pH 6; remark: listed apart in the source
Method: as §2, §3

soluble human FcRn [10] = biological target: T1, soluble human FcRn; assay: ELISA, competitor human IgG; remark: listed apart in the source
Method: as §1

soluble human FcRn [11] = biological target: T1, soluble human FcRn; assay: SPR, pH 7.4; remark: listed apart in the source
Method: as §2, §3

soluble human FcRn [12] = biological target: T1, soluble human FcRn; assay: ELISA, competitor human IgG; remark: listed apart in the source
Method: as §1

soluble human FcRn [13] = biological target: T1, soluble human FcRn; assay: SPR, pH 6; remark: listed apart in the source
Method: as §2, §3

soluble human FcRn [14] = biological target: T1, soluble human FcRn; assay: ELISA, competitor human IgG; remark: listed apart in the source
Method: as §1

soluble human FcRn [15] = biological target: T1, soluble human FcRn; assay: SPR, pH 6; remark: listed apart in the source
Method: as §2, §3

soluble human FcRn [16] = biological target: T1, soluble human FcRn; assay: ELISA, competitor human IgG; remark: listed apart in the source
Method: as §1

soluble human FcRn [17] = biological target: T1, soluble human FcRn; assay: SPR, pH 7.4; remark: listed apart in the source
Method: as §2, §3

soluble human FcRn [18] = biological target: T1, soluble human FcRn; assay: ELISA, competitor human IgG; remark: listed apart in the source
Method: as §1

soluble human FcRn [19] = biological target: T1, soluble human FcRn; assay: SPR, pH 6; remark: listed apart in the source
Method: as §2, §3

soluble human FcRn [20] = biological target: T1, soluble human FcRn; assay: SPR, pH 6; remark: listed apart in the source
Method: as §2, §3

soluble human FcRn [21] = biological target: T1, soluble human FcRn; assay: SPR, pH 7.4; remark: listed apart in the source
Method: as §2, §3

soluble human FcRn [22] = biological target: T1, soluble human FcRn; assay: ELISA, competitor human IgG; remark: listed apart in the source
Method: as §1

B1: Peptide No. 127 (peptide)
peptide: QRFDTGHFGGLYPKN-NH2
modifications: lactam 4-14; N-terminus assumed
SMILES: CC(C)C[C@@H]1NC(=O)CNC(=O)CNC(=O)[C@H](Cc2ccccc2)NC(=O)[C@H](Cc2c[nH]cn2)NC(=O)CNC(=O)[C@H]([C@@H](C)O)NC(=O)[C@@H](NC(=O)[C@H](Cc2ccccc2)NC(=O)[C@H](CCCNC(=N)N)NC(=O)[C@@H](N)CCC(N)=O)CC(=O)NCCCC[C@@H](C(=O)N[C@@H](CC(N)=O)C(N)=O)NC(=O)[C@@H]2CCCN2C(=O)[C@H](Cc2ccc(O)cc2)NC1=O
IC50 (soluble human FcRn [1]): 7.6 µM

Binder: RF[Pen]TGHFG[Sar]YPCNGP-NH2 (disulfide 3-12 (inferred), printed without the Leu after Sar) [Peptide No. 147]
Kd (soluble human FcRn [2]): 0.35 µM
Kd (soluble human FcRn [3]): 0.058 µM
IC50 (soluble human FcRn [4]): 1 µM

Binder: RFXTGHFGGLYPCNGP (Pen at 3; NMeLeu at 10; disulfide; C-terminal amide) [Peptide No. 146]
Kd (soluble human FcRn [2]): 0.28 µM
Kd (soluble human FcRn [3]): 0.059 µM
IC50 (soluble human FcRn [4]): 2.1 µM

Binder: RFXTGHFGPLYPCNGP (Pen at 3; D-Pro at 9; disulfide; C-terminal amide) [Peptide No. 144]
IC50 (soluble human FcRn [5]): 1.5 µM

B2: Peptide No. 280 (peptide)
peptide: RFXTGHFGGLYPC
modifications: not fully specified; Pen at 3; Sar at 9; NMeLeu at 10; intrachain disulfide; C-termini joined on the two amines of a branching Lys
notes: C-terminally linked dimer
IC50 (soluble human FcRn [6]): 0.025 µM

B3: Peptide No. 208 (peptide)
peptide: RFVTGHF[X3]LYPA-NH2
modifications: N-terminus assumed
SMILES: CC(C)C[C@H](NC(=O)CN1CCCC[C@H](NC(=O)[C@H](Cc2ccccc2)NC(=O)[C@H](Cc2c[nH]cn2)NC(=O)CNC(=O)[C@@H](NC(=O)[C@@H](NC(=O)[C@H](Cc2ccccc2)NC(=O)[C@@H](N)CCCNC(=N)N)C(C)C)[C@@H](C)O)C1=O)C(=O)N[C@@H](Cc1ccc(O)cc1)C(=O)N1CCC[C@H]1C(=O)N[C@@H](C)C(N)=O
Kd (soluble human FcRn [7]): 2.3 µM
IC50 (soluble human FcRn [8]): 23 µM

B4: Peptide No. 182 (peptide)
peptide: RFVTGHFXLYPA
modifications: X at 8 = 3-amino-2-oxo-1-piperidine-acetic acid (drawing CHEM-US-00094); linear; C-terminal amide
IC50 (soluble human FcRn [8]): 38 µM

Binder: QRFVTGHF[3‑amino‑2‑oxo‑1‑piperidine‑acetic acid]WYPINGP-NH2 (also: further groups not given here) [Peptide No. 191]
Kd (soluble human FcRn [7]): 333 µM

B5: Peptide No. 279 (peptide)
peptide: RFXTGHFGGLYPC
modifications: Pen at 3; Sar at 9; NMeLeu at 10; intrachain disulfide; C-terminal amide; N-termini joined by Bis-dPEG6 diacid linker
notes: N-terminally linked dimer
IC50 (soluble human FcRn [6]): 0.007 µM

B6: Peptide No. 201 (peptide)
peptide: QRFXTGHFGGLYPCNGP
modifications: Pen at 4; intrachain disulfide; C-terminal amide; N-termini joined by ethylene glycol-bis(succinic acid) linker
notes: N-terminally linked dimer
IC50 (soluble human FcRn [6]): 0.026 µM

Binder: QRYXTGHFGGLYPCNGP (Pen at 4; disulfide; C-terminal amide) [Peptide No. 97]
IC50 (soluble human FcRn [12]): 2.4 µM

Binder: QRWXTGHFGGLYPCNGP (Pen at 4; disulfide; C-terminal amide) [Peptide No. 98]
IC50 (soluble human FcRn [12]): 1.5 µM

Binder: QRFXGGHFGGLYPCNGP (Pen at 4; disulfide; C-terminal amide) [Peptide No. 195]
Kd (soluble human FcRn [13]): 0.76 µM

Binder: QRFXTGHFGGLXPCNGP (Pen at 4; 4-amino-Phe at 12; disulfide; C-terminal amide) [Peptide No. 63]
IC50 (soluble human FcRn [14]): 110 µM
Kd (soluble human FcRn [15]): 34 µM

Binder: QRFXTGHFGGLYPCNGP (D-Phe at 3; Pen at 4; disulfide; C-terminal amide) [Peptide No. 96]
IC50 (soluble human FcRn [12]): 11.4 µM

Binder: RFXTGHFGGLYPC (Pen at 3; disulfide; C-terminal amide) [Peptide No. 99]
IC50 (soluble human FcRn [16]): 2 µM
IC50 (soluble human FcRn [5]): 2 µM

Binder: QRFXTGHFGGLXPCNGP (Pen at 4; 3-pyridylAla at 12; disulfide; C-terminal amide) [Peptide No. 67]
IC50 (soluble human FcRn [14]): 92 µM
Kd (soluble human FcRn [15]): 34 µM

B8: Peptide No. 287 (peptide)
peptide: RFXTGHFGGLYPCG
modifications: Pen at 3; Sar at 9; NMeLeu at 10; intrachain disulfide; C-termini joined on a branching Lys
notes: C-terminally linked dimer
IC50 (soluble human FcRn [6]): 0.02 µM

Binder: RFVTGHF[6,5‑bicyclic dipeptide mimic]LYPA-NH2 (reading uncertain) [Peptide No. 207]
Kd (soluble human FcRn [7]): 20 µM
IC50 (soluble human FcRn [8]): > 125 µM

B9: Peptide No. 185 (peptide)
peptide: RFVTGHFXLYPA
modifications: X at 8 = 3-amino-N-1-carboxymethyl-2,3,4,5-tetrahydro-1H-[1]-benzazepine-2-one (drawing CHEM-US-00097); linear; C-terminal amide
Kd (soluble human FcRn [7]): 3.1 µM
IC50 (soluble human FcRn [8]): 57 µM

Other lines, results leading:

Kd (soluble human FcRn [9]): 8.8 µM
IC50 (soluble human FcRn [10]): 49 µM
Kd (soluble human FcRn [11]): 76 µM
Binder: AGPSYCIEGHIDGIYCFNAGTGGGK-NH2 (disulfide 6-16 (inferred)) [SEQ ID NO:9]

IC50 (soluble human FcRn [6]): 0.016 µM
B7: Peptide No. 288 (peptide)
peptide: RFXTGHFGGLYPCGG
modifications: Pen at 3; Sar at 9; NMeLeu at 10; intrachain disulfide; C-termini joined on a branching Lys
notes: C-terminally linked dimer

Kd (soluble human FcRn [9]): 22 µM
IC50 (soluble human FcRn [10]): 64 µM
Binder: AGKIICSPGHFGGMYCQGKGTGGGK-NH2 (disulfide 6-16 (inferred)) [SEQ ID NO:8]

Kd (soluble human FcRn [17]): 45 µM
IC50 (soluble human FcRn [18]): 36 µM
Kd (soluble human FcRn [9]): 5.7 µM
Kd (soluble human FcRn [19]): 5.7 µM
IC50 (soluble human FcRn [10]): 36 µM
Kd (soluble human FcRn [11]): 45 µM
Binder: AGQRFCTGHFGGLYPCNGPGTGGGK-NH2 (disulfide 6-16 (inferred)) [SEQ ID NO:6]

Kd (soluble human FcRn [20]): 230 µM
Kd (soluble human FcRn [21]): 200 µM
IC50 (soluble human FcRn [22]): > 125 µM
Binder: QRFCTGHFAGLYPCNGP-NH2 (disulfide 4-14 (inferred)) [SEQ ID NO:31]

Kd (soluble human FcRn [21]): 100 µM
Binder: QRFCTGHFGGLYACNGP-NH2 (disulfide 4-14 (inferred)) [SEQ ID NO:35]

Kd (soluble human FcRn [20]): 26 µM
Kd (soluble human FcRn [21]): 81 µM
IC50 (soluble human FcRn [22]): 107 µM
Binder: QRFCTGHFGGAYPCNGP-NH2 (disulfide 4-14 (inferred)) [SEQ ID NO:33]

Kd (soluble human FcRn [9]): 5.2 µM
Kd (soluble human FcRn [11]): 34.7 µM
Binder: AGGGCVTGHFGGIYCNTQGTGGGK-NH2 (disulfide 5-15 (inferred)) [SEQ ID NO:7]
